From US20200164071A1 (GENSUN BIOPHARMA, published 2020)

Assays:
[1] = target: T1, human TIGIT on CHO-K1 cells (human, UniProt Q495A1 23-244); test: flow cytometry blocking assay: PVR (hPVR-mIg, m14, by Examples 4 and 6) on human TIGIT CHO-K1 cells (Example 16); title: Blocking PVR binding to TIGIT
T1 construct: also called hu TIGIT; TIGIT+CHO-K1 cells
T1 sequence: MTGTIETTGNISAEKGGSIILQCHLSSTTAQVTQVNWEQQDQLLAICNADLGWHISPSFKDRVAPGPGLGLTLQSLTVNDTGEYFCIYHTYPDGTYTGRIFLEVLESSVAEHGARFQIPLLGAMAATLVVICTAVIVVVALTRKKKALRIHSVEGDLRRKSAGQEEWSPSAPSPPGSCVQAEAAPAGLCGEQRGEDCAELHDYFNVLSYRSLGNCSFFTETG

[2] = target: T2, human PD-1 on CHO-K1 cells (human, UniProt Q15116 25-288); test: flow cytometry blocking assay: FITC human PD-L1-Fc on human PD-1 CHO-K1 cells (Examples 11 and 16); title: Blocking PD-L1 binding to PD-1
T2 construct: also called Human PD-1 transfected CHO-K1 cells
T2 sequence (Q15116 25-288): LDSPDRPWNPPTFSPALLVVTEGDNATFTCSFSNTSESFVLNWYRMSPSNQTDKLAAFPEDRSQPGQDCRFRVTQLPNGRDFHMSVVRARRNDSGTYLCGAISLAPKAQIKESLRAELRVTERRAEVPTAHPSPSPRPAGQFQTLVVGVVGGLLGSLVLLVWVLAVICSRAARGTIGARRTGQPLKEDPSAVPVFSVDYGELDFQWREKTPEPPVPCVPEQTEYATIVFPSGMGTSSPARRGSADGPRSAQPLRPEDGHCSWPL
Protocol: (§1) Human or Cyno PD-1 transfected CHO-K1 cells were washed with FACS buffer (0.5% BSA 2 mM EDTA in PBS) and re-suspended at a concentration of 10⁶ cells/ml. […] The cells were then washed and re-suspended in 30 μl 7 AAD solution; 35 μl 10% neutral buffered formalin solution was then added and incubated for 15 mins. before analysis using the iQue intellicyt system.

[3] = target: T1, human TIGIT on CHO-K1 cells; test: flow cytometry competition with biotinylated hPVR-mIg on CHO-K1 cells expressing human TIGIT
Protocol: The cells were washed 2 times before staining with PE streptavidin (BioLegend) for 20 min at 4 C. The cells were then washed, resuspended in 30 μl 7 AAD solution, and 35 μl of 10% neutral buffered formalin solution was added. The cells were then incubated for 15 min. Flow cytometry was performed and IC50 was calculated using iQue intellicyt system.

[4] = target: T2, human PD-1 on CHO-K1 cells; test: flow cytometry blocking assay: FITC human PD-L1-Fc on human PD-1 CHO-K1 cells (Example 11)
Protocol: as §1

[5] = target: T2, human PD-1 on CHO-K1 cells; test: flow cytometry blocking assay: FITC human PD-L1-Fc on human PD-1 CHO-K1 cells (Example 11; the legend paragraph 42 calls it binding to hu PD-L1)
Protocol: as §1

[6] = target: T3, His tagged human PD-1 protein (human, UniProt Q15116 25-170, limits assumed); test: bio-layer interferometry (Octet RED96), antibody on anti-human IgG capture biosensors, His tagged human PD-1 as analyte, 1:1 global fit (Example 12)
T3 construct: also called huPD-1-His; not shown: His tag
T3 sequence (Q15116 25-170 limits assumed): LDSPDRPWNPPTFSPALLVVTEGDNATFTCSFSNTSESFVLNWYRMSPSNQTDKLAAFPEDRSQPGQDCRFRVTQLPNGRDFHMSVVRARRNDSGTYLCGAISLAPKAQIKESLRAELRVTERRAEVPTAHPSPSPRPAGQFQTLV
Protocol: […] was carried out using the Octet RED96 system (ForteBio Octet RED96 System) to characterize the binding kinetics of antibodies against His tagged human PD-1 protein. 20 nM of antibody was loaded onto the anti-human IgG capture biosensors. Association of analyte (His tagged human PD-1 protein) was observed by placing the biosensors in wells containing 2 or 3 fold serial dilution of analytes (72 nM being the highest concentration) for 5 mins. Dissociation was measured after transfer of the biosensors into kinetic buffer alone and monitoring of the interferometry signal for 10 minutes. The observed on and off rates (Ka and Kd) were fit using a 1:1 binding global fit model comprising at least 5 concentrations tested, and the equilibrium binding constant KD was then calculated.

[7] = target: T4, cyno PD-1 on CHO-K1 cells (cyno); test: flow cytometry blocking assay of Example 11, PD-L1 on cyno PD-1 CHO-K1 cells; cyno taken from the legend paragraph 42 ('cyno-hu'), while Example 11 speaks of human PD-1 and human PD-L1 for this figure
T4 construct: whole, on cells; also called cyno hu PD-1; Cyno PD-1 transfected CHO-K1 cells
Protocol: as §1

B1: TP-M8T10P1 (TP-83) (bispecific antibody)
heavy: QVQLVQSGAEVKKPGASVKVSCKASGYTFTSYYMHWVRQAPGQGLEWMGIINPSGGRTSYAQMFQGRVTMTRDTSTSTVYMELSSLRSEDTAVYYCARDREEQWPVGGFDYWGQGTLVTVSS
light: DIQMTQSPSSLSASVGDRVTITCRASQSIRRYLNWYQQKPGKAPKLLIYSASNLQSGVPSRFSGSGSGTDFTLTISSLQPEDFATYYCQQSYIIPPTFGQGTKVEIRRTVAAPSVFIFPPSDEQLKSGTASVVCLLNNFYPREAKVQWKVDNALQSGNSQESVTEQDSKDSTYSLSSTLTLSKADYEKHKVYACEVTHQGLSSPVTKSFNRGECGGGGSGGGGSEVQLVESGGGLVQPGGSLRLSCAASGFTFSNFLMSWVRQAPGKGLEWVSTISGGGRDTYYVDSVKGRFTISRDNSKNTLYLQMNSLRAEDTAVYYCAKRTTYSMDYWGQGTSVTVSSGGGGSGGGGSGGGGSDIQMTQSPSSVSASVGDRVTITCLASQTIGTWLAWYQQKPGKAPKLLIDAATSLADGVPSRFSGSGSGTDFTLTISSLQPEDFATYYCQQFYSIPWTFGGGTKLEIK
notes: Anti-TIGIT x anti-PD-1; The tie is in embodiment wording ('about 80% to about 100% homologous to')
[1]
  IC50: 0.21 nM
[2]
  IC50: 1.8 nM

B2: TP-M9T10P1 (TP-93) (bispecific antibody, human IgG4 S228P, kappa)
heavy: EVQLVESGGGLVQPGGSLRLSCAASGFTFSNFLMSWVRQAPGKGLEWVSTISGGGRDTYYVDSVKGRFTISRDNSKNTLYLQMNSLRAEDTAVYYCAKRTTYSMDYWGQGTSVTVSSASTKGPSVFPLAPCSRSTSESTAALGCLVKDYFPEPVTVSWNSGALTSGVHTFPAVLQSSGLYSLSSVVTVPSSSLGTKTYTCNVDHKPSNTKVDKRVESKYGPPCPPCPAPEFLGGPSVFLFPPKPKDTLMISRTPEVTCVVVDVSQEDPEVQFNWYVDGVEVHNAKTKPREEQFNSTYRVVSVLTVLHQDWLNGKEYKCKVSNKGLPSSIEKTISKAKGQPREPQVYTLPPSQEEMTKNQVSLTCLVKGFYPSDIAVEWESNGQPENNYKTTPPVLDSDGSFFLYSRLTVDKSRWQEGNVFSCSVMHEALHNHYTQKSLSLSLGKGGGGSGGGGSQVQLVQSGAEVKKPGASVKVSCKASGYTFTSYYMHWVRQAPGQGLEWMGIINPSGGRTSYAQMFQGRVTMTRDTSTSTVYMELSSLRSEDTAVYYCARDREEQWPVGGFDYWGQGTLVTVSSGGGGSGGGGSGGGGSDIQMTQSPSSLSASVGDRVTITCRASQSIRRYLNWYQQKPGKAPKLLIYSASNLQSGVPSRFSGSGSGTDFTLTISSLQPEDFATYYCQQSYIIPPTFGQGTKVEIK
light: DIQMTQSPSSVSASVGDRVTITCLASQTIGTWLAWYQQKPGKAPKLLIDAATSLADGVPSRFSGSGSGTDFTLTISSLQPEDFATYYCQQFYSIPWTFGGGTKLEIKRTVAAPSVFIFPPSDEQLKSGTASVVCLLNNFYPREAKVQWKVDNALQSGNSQESVTEQDSKDSTYSLSSTLTLSKADYEKHKVYACEVTHQGLSSPVTKSFNRGEC
notes: as for B1
[1]
  IC50: 0.4 nM
[2]
  IC50: 1.4 nM

B3: TP-M10T8P5 (TP-92) (bispecific antibody, human IgG4 S228P)
heavy: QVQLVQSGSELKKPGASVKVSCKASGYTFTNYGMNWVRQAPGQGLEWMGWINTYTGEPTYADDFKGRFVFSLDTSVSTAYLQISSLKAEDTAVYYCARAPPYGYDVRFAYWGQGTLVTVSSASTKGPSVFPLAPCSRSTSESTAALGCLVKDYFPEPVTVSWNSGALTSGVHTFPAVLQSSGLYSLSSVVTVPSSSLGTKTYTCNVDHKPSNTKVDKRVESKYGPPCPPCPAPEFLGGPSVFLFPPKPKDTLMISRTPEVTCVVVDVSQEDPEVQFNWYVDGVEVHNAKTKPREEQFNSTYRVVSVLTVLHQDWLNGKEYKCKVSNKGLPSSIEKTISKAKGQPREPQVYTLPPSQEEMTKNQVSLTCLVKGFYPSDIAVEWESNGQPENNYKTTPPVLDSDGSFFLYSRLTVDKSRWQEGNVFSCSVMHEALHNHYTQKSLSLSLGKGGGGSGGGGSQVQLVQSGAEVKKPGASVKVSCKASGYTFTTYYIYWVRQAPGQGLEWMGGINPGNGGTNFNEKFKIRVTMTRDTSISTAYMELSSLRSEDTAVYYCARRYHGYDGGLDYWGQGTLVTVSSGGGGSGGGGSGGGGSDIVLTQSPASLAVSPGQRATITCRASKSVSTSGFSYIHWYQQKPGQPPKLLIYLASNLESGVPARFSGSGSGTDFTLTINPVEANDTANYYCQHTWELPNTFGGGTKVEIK
light: DVVMTQSPLSLPVTLGQPASISCRSSQSIVHSNGNTYLEWFQQRPGQSPRVLIYKVSDRFSGVPDRFSGSGSGTDFTLKISRVEAEDVGVYYCFQGSHVPWTFGRGTKLEIK
notes: as for B1
[1]
  IC50: 0.4 nM

B4: T-02 (antibody, V domains shown)
VH: QVKLQESGPGLVKPSQTLSLTCTVTGYSITSDYAWNWIRQPPGKGLEWIGYITYSGGTSYNPSLKSRVTISVDTSKNQFSLKLSSVTAADTAVYSCARRQIGLGFTYWGQGTLVTVSA
VL: DIQMTQSPSSLSASVGDRVTIPCKASQDLSTAVAWYQQKPGKAPKLLIYSSSYRYTGVPSRFSGSGSGTDFTLTISSLQPEDFATYYCQQSYSTPQQHYSTPWTFGEGTKLEIK
notes: Anti-human TIGIT monoclonal antibody from mouse hybridoma; also called anti-hu TIGIT mab T-02
[3]
  IC50: 0.35 to 0.71 nM

B5: T-09 (antibody, V domains shown)
VH: QVTLKESGPTLVKPTQTLTLTCTFSGFSLSTFAMGVGWIRQPPGKALEWLAHIWWDDDKYYNPALKSRLTITKDTSKNQVVLTMTNMDPVDTATYYCARMDYSYFAWFAYWGQGTLVTVSS
VL: QAVVTQEPSLTVSPGGTVTLTCRSSTGAVTTSNYANWVQQKPGQLFRGLIGGTNNRAPWVPARFSGSLIGDKAALTLSGVQPEDEAEYFCALWYSNHWVFGGGTKLTVL
notes: Anti-human TIGIT monoclonal antibody from mouse hybridoma; also called anti-hu TIGIT mab T-09
[3]
  IC50: 0.36 to 0.42 nM

B6: PD-02 mab (antibody, V domains shown)
VH: QVQLVQSGAEVKKPGASVKVSCKASDYTFTNSYLYWLRQAPGQGLEWMGGINPSNGGTNFNEKFKTRTTSTRDTSISTAYMELSRLRSDDTVVYYCTRRDYNYDGGFDSWGQGTLVTVSS
VL: DIQMTQSPSSLSASVGDRVTFTCRASSTLYSNYLHWYQQKPGKAPKLLIYRASFLASGVPSRFSGSGSGTDFTLTISSLQPEDFATYYCQQGSSIPLTFGGGTKVEIK
[4]
  IC50: 2.05 nM
[5]
  IC50: 0.54 nM
[6]
  Kd: 3.7 nM
  koff: 0.000395 s⁻¹
  kon: 106000 M⁻¹ s⁻¹
[7]
  IC50: 1.72 nM

B7: PD-04 (antibody, V domains shown)
VH: QVQLVQSGAEVKKPGASVKVSCKASDYTFTNSYIYWVRQAPGQGLEWMGGINPSNGGTNFNEKFKTRVTSTRDTSISTAYMELSRLRSDDTVVYYCARRDYNYDGGFDSWGQGTLVTVSS
VL: DIQMTQSPSSLSASVGDRVTFTCRASSSLYSNYLHWYQQKPGKAPKLLIYRASFLASGVPSRFSGSGSGTDFTLTISSLQPEDFATYYCQQGSSIPLTFGGGTKVEIK
notes: also called anti-PD-1 mab PD-04
[5]
  IC50: 0.82 nM
[7]
  IC50: 2.15 nM

B8: PD-06 (antibody, V domains shown)
VH: QVQLVQSGAEVKKPGASVKVSCKASGYTFTSYYIHWVRQAPGQRLEWMGWIFPGSGNSKYNENFKGRVTITRDTSASTAYMELSSLRSEDTAVYFCASETYDYGDYWGQGTLVTVSS
VL: DIQMTQSPSSLSASVGDRVTITCKASQNVGTNVAWYQQKPGKAPKSLIYSASYRYSGVPSRFSGSGSGTDFTLTISSLQPEDFATYFCQQYYSYPYTFGQGTKLEIK
notes: also called anti-PD-1 mab PD-06
[5]
  IC50: 0.65 nM
[7]
  IC50: 2.14 nM

B9: T-05 (antibody, V domains shown)
VH: EVQLKQSGAEVKKPGATVKISCKVSGYTFTDQAIHWVQQAPGKGLEWMGYIYPRDGSTKYNETFKGRVTITADTSTDTAYMELSSLRSEDTAVYFCARGMLRWFAYWGQGTLVTVSS
VL: DIQMTQSPSSLSASVGDRVTITCKASQDVSTAVAWYQQKPGKAPKLLIYSASYRYTGVPSRFSGSGSGTDFTLTISSLQPEDFATYYCQQHYSTPLTFGAGTKLELK
notes: Anti-human TIGIT monoclonal antibody from mouse hybridoma; also called anti-hu TIGIT mab T-05
[3]
  IC50: 0.2 to 0.46 nM

B10: T-06 (antibody, V domains shown)
VH: QVQLQESGPGLVKPSQTLSLTCTVSGGSVSSDYAWNWIRQPPGKGLEWIGYITYSGSTSYNPSLKSRVTISVDTSKNQFSLKLSSVTAADTAVYYCARRQVGLGFAYWGQGTLVTVSA
VL: DIQMTQSPSSLSASVGDRVTITCKASQDVSTAVAWYQQKPGKAPKLLIYSASYHYTGVPSRFSGSGSGTDFTLTISSLQPEDFATYYCQQHYSTPWTFGGGTKLEIK
notes: Anti-human TIGIT monoclonal antibody from mouse hybridoma; also called anti-hu TIGIT mab T-06
[3]
  IC50: 0.84 nM

B11: T-03 (antibody, V domains shown)
VH: EVQLVQSGAEVKKPGATVKISCKVSGYTFTDHTIHWVQQAPGKGLEWMGYFYPRDGSTKYNEKFKGRVTITADTSTDTAYMELSSLRSEDTAVYYCATGMLRWFADWGQGTLITVSV
VL: DIQMTQSPSSLSASVGDRVTITCKASQDVSTTVAWYQQKPGKAPKLLIYSASYRYTGVPSRFSGSGSGTDFTLTISSLQPEDFATYYCQQHYSTPLTFGAGTKLELK
notes: Anti-human TIGIT monoclonal antibody from mouse hybridoma; also called anti-hu TIGIT mab T-03
[3]
  IC50: 0.26 to 0.52 nM

B12: T-07 (antibody, V domains shown)
VH: EVQLQESGPGLVKPSDTLSLTCAVSGYSITSDSAWNWIRQPPGKGLEWIGYITYSGSTNYNPSLRSRVTMSVDTSKNQFSLKLSSVTAVDTAVYYCTRRQVGLGFAYWGQGTLVTVSA
VL: DIQMTQSPSSLSASVGDRVTITCKASQDVSTAVAWYQQKPGKAPKLLIYSASYRFTGAPSRFSGSGSGTDFTLTISSLQPEDFGIYYCQHHYSTPWTFGGGTKLEFK
notes: Anti-human TIGIT monoclonal antibody from mouse hybridoma; also called anti-hu TIGIT mab T-07
[3]
  IC50: 0.5 nM
